T1: human CD73 antigen (human, UniProt P21589 27-547)
T1 construct: also called Biotinylated Human CD73
T1 sequence (looked up): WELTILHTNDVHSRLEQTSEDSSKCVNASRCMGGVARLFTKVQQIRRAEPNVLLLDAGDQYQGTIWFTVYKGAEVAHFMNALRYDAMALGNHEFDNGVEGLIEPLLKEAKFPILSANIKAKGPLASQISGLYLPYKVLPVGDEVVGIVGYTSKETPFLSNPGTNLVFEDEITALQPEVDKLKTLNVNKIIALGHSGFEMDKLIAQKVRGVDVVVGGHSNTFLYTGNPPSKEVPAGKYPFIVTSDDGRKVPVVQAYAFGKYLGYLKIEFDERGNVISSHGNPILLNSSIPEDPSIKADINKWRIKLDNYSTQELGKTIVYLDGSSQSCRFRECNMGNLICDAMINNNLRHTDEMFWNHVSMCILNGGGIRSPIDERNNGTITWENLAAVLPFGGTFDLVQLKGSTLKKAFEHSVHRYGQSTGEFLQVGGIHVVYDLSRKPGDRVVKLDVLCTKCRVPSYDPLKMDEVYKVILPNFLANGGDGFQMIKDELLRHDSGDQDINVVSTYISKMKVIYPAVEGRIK

T2: cynomolgus monkey CD73 antigen (cynomolgus monkey, UniProt A0A2K5V5U7 27-547)
T2 construct: also called Biotinylated cynomolgus monkey CD73
T2 sequence: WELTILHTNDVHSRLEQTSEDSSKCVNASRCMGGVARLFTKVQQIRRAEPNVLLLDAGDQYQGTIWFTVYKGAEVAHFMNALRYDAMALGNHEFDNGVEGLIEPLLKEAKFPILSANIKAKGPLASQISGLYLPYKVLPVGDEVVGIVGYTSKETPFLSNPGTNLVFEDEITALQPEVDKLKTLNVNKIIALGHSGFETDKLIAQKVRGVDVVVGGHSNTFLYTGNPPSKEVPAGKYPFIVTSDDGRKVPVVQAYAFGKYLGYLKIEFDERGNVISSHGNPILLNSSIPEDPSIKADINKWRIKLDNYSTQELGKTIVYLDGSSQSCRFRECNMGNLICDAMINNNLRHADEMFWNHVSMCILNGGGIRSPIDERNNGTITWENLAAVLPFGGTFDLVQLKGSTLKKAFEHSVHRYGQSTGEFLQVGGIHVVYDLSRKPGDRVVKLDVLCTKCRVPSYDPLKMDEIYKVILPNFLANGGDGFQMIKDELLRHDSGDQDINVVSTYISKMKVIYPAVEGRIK

T3: human CD73 expressed on the cell surface (human, UniProt P21589 27-549)
T3 sequence: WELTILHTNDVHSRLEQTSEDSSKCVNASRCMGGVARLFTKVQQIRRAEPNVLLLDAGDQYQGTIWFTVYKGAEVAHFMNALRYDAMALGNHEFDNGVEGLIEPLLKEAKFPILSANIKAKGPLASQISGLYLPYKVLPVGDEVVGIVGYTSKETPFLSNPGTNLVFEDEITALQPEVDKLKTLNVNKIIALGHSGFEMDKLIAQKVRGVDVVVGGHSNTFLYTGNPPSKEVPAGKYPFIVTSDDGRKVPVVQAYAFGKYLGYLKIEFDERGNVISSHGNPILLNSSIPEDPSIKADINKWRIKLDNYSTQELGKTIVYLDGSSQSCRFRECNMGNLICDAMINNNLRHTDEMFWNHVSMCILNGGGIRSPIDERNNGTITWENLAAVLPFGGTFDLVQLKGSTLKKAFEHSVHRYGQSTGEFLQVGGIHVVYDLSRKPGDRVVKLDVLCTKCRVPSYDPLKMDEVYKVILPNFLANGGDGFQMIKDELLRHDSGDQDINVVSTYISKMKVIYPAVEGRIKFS


Legend:
[1] = biological target: T1, human CD73 antigen; assay: ForteBio BLI; IgG on AHQ sensor, 100 nM antigen; bivalent; 1:1 model
Description: (§1) Briefly, the sensor was equilibrated off-line in assay buffer for 30 min, then on-line detection was carried out for 60 sec to establish a baseline. The purified antibody obtained as described above was loaded on-line to the AHQ sensor (ForteBio) for ForteBio affinity determination. The sensor loaded with the antibody was then exposed to 100 nM of human or cynomolgus monkey antigen for 5 minutes, after which the sensor was transferred to assay buffer for dissociation for 5 minutes to determine the dissociation rate. Kinetic analysis was performed by using a 1:1 binding model.

[2] = biological target: T2, cynomolgus monkey CD73 antigen; assay: as above
Description: as §1

[3] = biological target: T3, human CD73 expressed on the cell surface; assay: cell-based or functional assay
[4] = biological target: T1, human CD73 antigen; assay: ForteBio BLI; antigen on sensor, 100 nM scFv; monovalent; 1:1 model
Description: (§2) Human or cynomolgus monkey CD73 antigen protein was loaded on-line to the AHQ sensor (ForteBio) for ForteBio affinity measurement. […] Kinetic analysis was performed by using a 1:1 binding model.

[5] = biological target: T2, cynomolgus monkey CD73 antigen; assay: as above
Description: as §2

[6] = biological target: T3, human CD73 expressed on the cell surface; assay: cell-based or functional assay; remark: listed apart in the source

Binder	Kd [1] [nM]	Kd [2] [nM]	CD73 enzymatic activity assay IC50 (Calu-6 cells, CellTiter-Glo) [3] [µg/mL]	Kd [4] [nM]	Kd [5] [nM]	IC50 for inhibiting the enzymatic activity of CD73 (Calu-6 cells) [6] [µg/mL]
ADI-34071 (antibody, human IgG4 S228P, kappa, F234A L235A, V domains shown, Parental antibody from the yeast library) VH: EVQLVESGGGLVQPGRSLRLSCAASGFTFDDYAMHWVRQAPGKGLEWVSGISWSSGSIGYADSVKGRFTISRDNAKNSLYLQMNSLRAEDTAVYYCAKDRRYGLTYGMDVWGQGTTVTVSS VL: not shown	0.892	1.34	0.171	–	–	–
ADI-34095 (antibody, human IgG4 S228P, kappa, F234A L235A, V domains shown) VH: QVQLVESGGGVVQPGRSLRLSCAASGFTFSSYGMHWVRQAPGKGLEWVAVISYEGSNKYYADSVKGRFTISRDNSKNTLYLQMNSLRAEDTAVYYCARGGARYPIAFDIWGQGTMVTVSS VL: DIQLTQSPSSVSASVGDRVTITCRASQDISSWLAWYQQKPGKAPKLLIYAASSLQSGVPSRFSGSGSGTDFTLTISSLQPEDFATYYCQQANDFPITFGGGTKVEIKR	–	–	0.279	–	–	–
scfv fragment of ADI-37513 (scFv, V domains shown) VH: EVQLLESGGGVVQPGRSLRLSCAASGFTFNFYGMHWVRQAPGKGLEWVAVINDEGINKYYADSVKGRFTISRDNSKNTLYLQMNSLRAEDTAVYYCARGGARYPIAFDIWGQGTMVTVSS VL: DIQLTQSPSSVSASVGDRVTITCRASQDISSWLAWYQQKPGKAPKLLIYAASSLQSGVPSRFSGSGSGTDFTLTISSLQPEDFATYYCQQANDFPITFGGGTKVEIK	–	–	–	2.84	2.26	–
scfv fragment of ADI-37522 (scFv, V domains shown) VH: QVQLVESGGGVVQPGRSLRLSCAASGFTFSHYGMHWVRQAPGKGLEWVAVISDEGSNKYYADSVKGRFTISRDNSKNTLYLQMNSLRAEDTAVYYCARGWLRYPIAFDIWGQGTMVTVSS VL: DIQLTQSPSSVSASVGDRVTITCRASQDISSWLAWYQQKPGKAPKLLIYAASSLQSGVPSRFSGSGSGTDFTLTISSLQPEDFATYYCQQANDFPITFGGGTKVEIK	–	–	–	2.43	2.93	–
ADI-34104 (antibody, human IgG4 S228P, kappa, F234A L235A, V domains shown, Parental antibody) VH: QVQLQESGPGLVKPSETLSLTCAVSGYSISSGYYWGWIRQPPGKGLEWIGSIYHSGSTYYNPSLKSRVTISVDTSKNQFSLKLSSVTAADTAVYYCARASIYTPPPEYFQHWGQGTLVTVSS VL: DIQMTQSPSTLSASVGDRVTITCRASQSISSWLAWYQQKPGKAPKLLIYDASSLESGVPSRFSGSGSGTEFTLTISSLQPDDFATYYCQQSRIYSTFGGGTKVEIKR	0.847	–	0.142	–	–	–
scfv fragment of ADI-37542 (scFv, V domains shown) VH: QVQLQESGPGLVKPSETLSLTCAVSGYSISEGYYWGWIRQPPGKGLEWIGSIYHTGFTYYNPSLKSRVTISVDTSKNQFSLKLSSVTAADTAVYYCARASIYTPPPEYFQHWGQGTLVTVSS VL: DIQMTQSPSTLSASVGDRVTITCRASQSISSWLAWYQQKPGKAPKLLIYDASSLESGVPSRFSGSGSGTEFTLTISSLQPDDFATYYCQQSRIYSTFGGGTKVEIK	–	–	–	6.04	5.47	–
scfv fragment of ADI-37543 (scFv, V domains shown) VH: QVQLQESGPGLVKPSETLSLTCAVSGYSISSGYYWAWIRQPPGKGLEWIGSIFHSGFTFYNPSLKSRVTISVDTSKNQFSLKLSSVTAADTAVYYCARASIYTPPPEYFQHWGQGTLVTVSS VL: DIQMTQSPSTLSASVGDRVTITCRASQSISSWLAWYQQKPGKAPKLLIYDASSLESGVPSRFSGSGSGTEFTLTISSLQPDDFATYYCQQSRIYSTFGGGTKVEIK	–	–	–	3.85	2.99	–
ADI-34074 (antibody, human IgG4 S228P, kappa, F234A L235A, V domains shown, Parental antibody; also called AD-34074) VH: EVQLVESGGGLVQPGRSLRLSCAASGFTFDDYAMHWVRQAPGKGLEWVSGISWSSGSIGYADSVKGRFTISRDNAKNSLYLQMNSLRAEDTAVYYCAKGKYLPTGSVDYWGQGTLVTVSS VL: EIVLTQSPGTLSLSPGERATLSCRASQSVSSSYLAWYQQKPGQAPRLLIYGASSRATGIPDRFSGSGSGTDFTLTISRLEPEDFAVYYCQQYYDYPPITFGGGTKVEIKR	2.12	3.13	0.476	–	–	–
scfv fragment of ADI-37497 (scFv, V domains shown) VH: EVQLVESGGGLVQPGGSLRLSCAASGFTFDDYFMHWVRQAPGKGLEWVSGISWSSGPIDYADSVKGRFTISRDNAKNSLYLQMNSLRAEDTAVYYCAKGKYLPTGSVDYWGQGTLVTVSS VL: EIVLTQSPGTLSLSPGERATLSCRASQSVSSSYLAWYQQKPGQAPRLLIYGASSRATGIPDRFSGSGSGTDFTLTISRLEPEDFAVYYCQQYYDYPPITFGGGTKVEIK	–	–	–	10.2	8.82	–
scfv fragment of ADI-37496 (scFv, V domains shown) VH: EVQLVESGGGLVQPGRSLRLSCAASGFTFDDFYMHWVRQAPGKGLEWVSGISWSSTSIDYADSVKGRFTISRDNAKNSLYLQMNSLRAEDTAVYYCAKGKYLPTGSVDYWGQGTLVTVSS VL: EIVLTQSPGTLSLSPGERATLSCRASQSVSSSYLAWYQQKPGQAPRLLIYGASSRATGIPDRFSGSGSGTDFTLTISRLEPEDFAVYYCQQYYDYPPITFGGGTKVEIK	–	–	–	13.8	13.7	–
ADI-34086 (antibody, human IgG4 S228P, kappa, F234A L235A, V domains shown, Parental antibody) VH: EVQLLESGGGLVQPGGSLRLSCAASGFTFSNYAMSWVRQAPGKGLEWVSAISGSGGSTYYADSVKGRFTISRDNSKNTLYLQMNSLRAEDTAVYYCARGGPYGSGSYWDTFDYWGQGTLVTVSS VL: EIVMTQSPATLSVSPGERATLSCRASQSVSSNLAWYQQKPGQAPRLLIYGASTRATGIPARFSGSGSGTEFTLTISSLQSEDFAVYYCQQYTNHYTFGGGTKVEIKR	1.23	1.9	0.089	–	–	–
ADI-34101 (antibody, human IgG4 S228P, kappa, F234A L235A, V domains shown, Parental antibody) VH: QVQLVESGGGVVQPGRSLRLSCAASGFTFSSYGMHWVRQAPGKGLEWVAVISYEGSNKYYADSVKGRFTISRDNSKNTLYLQMNSLRAEDTAVYYCARSRYDWSLFDIWGQGTMVTVSS VL: EIVLTQSPGTLSLSPGERATLSCRASQSVSSSYLAWYQQKPGQAPRLLIYGASSRATGIPDRFSGSGSGTDFTLTISRLEPEDFAVYYCQQYVLYPFTFGGGTKVEIKR	1.07	1.57	0.153	–	–	–
scfv fragment of ADI-37532 (scFv, V domains shown) VH: QVQLVESGGGVVQPGRSLRLSCAASGFTFSSYSMHWVRQAPGKGLEWVAHIVEGSDKYYADSVKGRFTISRDNSKNTLYLQMNSLRAEDTAVYYCARSRYDWSLFDIWGQGTMVTVSS VL: EIVLTQSPGTLSLSPGERATLSCGASQSVSSSYLAWYQQKPGQAPRLLIYGASSRATGIPDRFSGSGSGTDFTLTISRLEPEDFAVYYCQQYVLYPFTFGGGTKVEIK	–	–	–	0.581	0.53	–
Oleclumab (antibody, V domains shown) VH: EVQLLESGGGLVQPGGSLRLSCAASGFTFSSYAYSWVRQAPGKGLEWVSAISGSGGRTYYADSVKGRFTISRDNSKNTLYLQMNSLRAEDTAVYYCARLGYGRVDEWGRGTLVTVSS VL: QSVLTQPPSASGTPGQRVTISCSGSLSNIGRNPVNWYQQLPGTAPKLLIYLDNLRLSGVPDRFSGSKSGTSASLAISGLQSEDEADYYCATWDDSHPGWTFGGGTKLTVL	0.948	0.96	0.167	–	–	0.177

— patent publication US20230312741A1 (published 2023)
